Test results from patent publication US20230256076A1 (SICHUAN CLOVER BIOPHARMACEUTICALS, published 2023).

Biological target: T1, exemplary recombinant polypeptide trimer: RSV F protein peptide (residues 1 to 520, RSV A2 strain) fused to … (respiratory syncytial virus A2 strain; …, UniProt P02452 1156-1464)
T1 construct: range 1-520;domain: C-propeptide of α1 collagen; Furin processing (F2/F1, loss of pep27) is not described for the tested protein; also called RSV F-Trimer; exemplary fusion peptide comprising an RSV F protein peptide
Assay: BLI (ForteBio Octet QKe); palivizumab 5 µg/mL on Protein A sensors, 2-fold dilutions of fusion peptide from 20 µg/mL, 1:1 model

T1 sequence (P02452 1156-1464): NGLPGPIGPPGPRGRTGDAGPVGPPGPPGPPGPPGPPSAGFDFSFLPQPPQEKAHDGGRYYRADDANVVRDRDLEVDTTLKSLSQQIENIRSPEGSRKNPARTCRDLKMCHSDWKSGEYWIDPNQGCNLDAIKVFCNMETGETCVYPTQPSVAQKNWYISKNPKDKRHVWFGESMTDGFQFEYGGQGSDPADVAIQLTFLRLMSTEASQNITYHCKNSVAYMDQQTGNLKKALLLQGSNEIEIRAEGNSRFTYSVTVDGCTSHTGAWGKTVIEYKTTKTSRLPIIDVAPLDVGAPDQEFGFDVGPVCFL

B1: palivizumab (antibody, V domains shown)
VH: QVTLRESGPALVKPTQTLTLTCTFSGFSLSTSGMSVGWIRQPPGKALEWLADIWWDDKKDYNPSLKSRLTISKDTSKNQVVLKVTNMDPADTATYYCARSMITNWYFDVWGAGTTVTVSS
VL: DIQMTQSPSTLSASVGDRVTITCKCQLSVGYMHWYQQKPGKAPKLLIYDTSKLASGVPSRFSGSGSGTEFTLTISSLQPDDFATYYCFQGSGYPFTFGGGTKLEIK
  Kd: < 1 pM
